Molecular target: the molecule itself
Experiment: AUC; sedimentation velocity, E-TM at DPR 25 (lowest DPR tested) in 5 mM C14SB micelles, 50 mM Tris-HCl pH 7.3, 100 mM NaCl, 29.4% D2O, 20 °C, 50,000 rpm

B1: transmembrane domain of SARS-2 E corresponding to residues 7–38 (E-TM) (peptide)
chain: EETGTLIVNSVLLFLAFVVFLLVTLAILTALR
notes: SARS-CoV-2 envelope (E) protein, transmembrane domain, residues 7-38; monomer 3490 Da; also called E-TM 7–38
stoichiometry N: ~3.3

From publication PMC10420310, “The Complex Proteolipidic Behavior of the SARS-CoV-2 Envelope Protein Channel: Weak Selectivity and Heterogeneous Oligomerization” (International Journal of Molecular Sciences, 2023)
